Source: patent US6610541B2, “Recombinant, active caspases and uses thereof” (Thomas Jefferson University, priority 1998, dated 2003)

T1: rev-caspase-6 (Homo sapiens, UniProt P55212)
T1 sequence (P55212 with tags, fused parts or gaps): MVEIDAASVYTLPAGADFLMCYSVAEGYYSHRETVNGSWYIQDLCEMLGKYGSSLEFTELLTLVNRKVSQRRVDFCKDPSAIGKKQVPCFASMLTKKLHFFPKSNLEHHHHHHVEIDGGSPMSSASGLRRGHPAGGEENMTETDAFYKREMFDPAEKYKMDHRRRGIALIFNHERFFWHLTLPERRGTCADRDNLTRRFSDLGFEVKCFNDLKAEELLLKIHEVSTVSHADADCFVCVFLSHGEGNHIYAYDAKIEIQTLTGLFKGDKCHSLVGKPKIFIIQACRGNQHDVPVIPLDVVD

T2: rev-caspase-3 (Homo sapiens, UniProt P42574)
T2 sequence (P42574 with tags, fused parts or gaps): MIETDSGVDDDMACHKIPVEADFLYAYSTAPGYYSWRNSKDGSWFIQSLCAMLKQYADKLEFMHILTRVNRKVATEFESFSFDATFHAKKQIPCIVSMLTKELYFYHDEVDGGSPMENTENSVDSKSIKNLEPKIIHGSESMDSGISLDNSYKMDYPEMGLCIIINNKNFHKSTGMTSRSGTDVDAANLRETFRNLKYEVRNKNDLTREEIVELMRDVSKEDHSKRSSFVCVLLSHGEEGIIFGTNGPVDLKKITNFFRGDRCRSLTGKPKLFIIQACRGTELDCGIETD


How the values were obtained:
rev-caspase-6 [1] = target: T1, rev-caspase-6; experiment: Inhibition of rev-caspase-6 induced apoptosis in transfected MCF-7 cells; assay type: cell-based; set-up: T7-tag (15 residues) (N); made in house; conditions: co-transfection with 4-fold expression construct
Protocol: (§1) FIGS. 4A and B are bar diagrams representing the ability of rev-caspase-3 and -6 to induce apoptosis in MCF-7 cells. MCF-7 cells were transiently transfected with either rev-caspase-3 (FIG. 4A), or rev-caspase-6 (FIG. 4B) expression constructs in combination with 4-fold of CrmA, p35 or Bcl-2 expression constructs, or 20 μM zVAD-fmk. Cells transfected with an empty vector or the wild-type caspase-3 or -6 were used as controls.
(§2) To express the rev-caspases in mammalian cells and assay their apoptotic activity, they were amplified with the T7-tag primer and the LS-reverse primers using the pET28a constructs as templates, and subcloned into the mammalian double expression vector pRSC-LacZ (MacFarlane et al., J. Biol. Chem., 272: 25417-25420, 1997; Tsang et al., Bio/Technology, 22: 68, 1997). This vector allows the expression of lacZ under the Rous Sarcoma virus promoter, and the test cDNA under the CMV promoter. To assay for apoptosis, MCF-7 or 293 cells were transfected, using the method commercially available as the Lipofect Amine method (Life Technologies, Inc.), with the pRSC-LacZ constructs in the presence or absence of different apoptosis-inhibitors. 30 h after transfection cells were stained with β-galactosidase and examined for morphological signs of apoptosis. […]

rev-caspase-3 [2] = target: T2, rev-caspase-3; experiment: Inhibition of rev-caspase-3 induced apoptosis in transfected MCF-7 cells; assay type: cell-based; set-up: T7-tag (15 residues) (N); made in house; conditions: co-transfection with 4-fold expression construct
Protocol: as §1, §2

rev-caspase-6 [3] = target: T1, rev-caspase-6; experiment: Autocatalytic processing of in vitro translated rev-caspase-6 (SDS-PAGE/autoradiography); assay type: biochemical; set-up: T7-tag (15 residues) (N); made in house; host or cells: in vitro translation in rabbit reticulocyte lysate (TNT Kit, Promega)
Protocol: (§3) FIGS. 2B and C are scanned images of autoradiograms representing SDS-PAGE analysis of the autoprocessing of rev-caspase-3 and -6, respectively in the presence of varying levels of selected caspase inhibitors. Rev-caspase-3 (FIG. 2B) or rev-caspase-6 (FIG. 2C) were in vitro translated in the presence of increasing concentrations of DEVD-CHO […]; (SEQ ID NO:52), or zVAD-fmk (0-5 μM). The translation products were then analyzed as in FIG. 2A. WT, wild-type.
(§4) ^35S-labeled caspases (wild-type and rev-caspases) were obtained by in vitro translation in the presence of ^35S-methionine using a coupled transcription/translation system in rabbit reticulocyte lysate using TNT Kit (Promega) according to the manufacturer's recommendations.
(§5) To test the effect of selected caspase inhibitors on the autocatalytic activity of rev-caspase-3 and 6, the rev-caspases were translated as in Example 3, but in the presence of varying amounts of inhibitors.

lamin A = experiment: Cleavage of in vitro translated lamin A C-terminus by bacterially expressed caspases; assay type: biochemical; conditions: BL-21 bacterial extracts, 2 h at 37° C.
Protocol: FIGS. 3A and B are scanned images representing the SDS-PAGE analysis of the ability of rev-caspase-3 (imaged by western blot) and -6 (imaged by autoradiogram) to cleave PARP and lamin, respectively. In FIG. 3A purified human PARP was incubated with buffer (lane 1) or BL-21 bacterial extracts prepared from bacteria transformed with caspase-3 (lane 2), rev-caspase-3 (lane 3), caspase-6 (lane 4), rev-caspase-6 (lane 5) constructs or empty pET28a vector (lane 6) for 2 h at 37° C. The reaction products were then analyzed by SDS-PAGE and Western blotting with anti-human PARP antibody. In FIG. 3B a cDNA encoding the C-terminus of lamin A (amino acids) which contain the caspase-6 cleavage site (VEIDA); (SEQ ID NO:116), was amplified by PCR and in vitro translated in the presence of ^35S-methionine. The labeled product was incubated with buffer (lane 1) or the BL-21 bacterial extracts listed above for 2 h at 37° C., and then analyzed by SDS-PAGE and autoradiography. The cleavage products are indicated to the right.
At limited caspase concentrations, poly(ADP) ribose polymerase (PARP) is specifically cleaved by caspase-3 and 7 but not other caspases. Similarly, lamin is specifically cleaved by caspase-6 but not other caspases. […]

MCF-7 cells = experiment: Induction of apoptosis in transfected MCF-7 cells (round blue apoptotic cells); assay type: cell-based, human; conditions: 30 h after transfection
Protocol: as §1
To express the rev-caspases in mammalian cells and assay their apoptotic activity, they were amplified with the T7-tag primer and the LS-reverse primers using the pET28a constructs as templates, and subcloned into the mammalian double expression vector pRSC-LacZ (MacFarlane et al., J. Biol. Chem., 272: 25417-25420, 1997; Tsang et al., Bio/Technology, 22: 68, 1997). This vector allows the expression of lacZ under the Rous Sarcoma virus promoter, and the test cDNA under the CMV promoter. To assay for apoptosis, MCF-7 or 293 cells were transfected, using the method commercially available as the Lipofect Amine method (Life Technologies, Inc.), with the pRSC-LacZ constructs in the presence or absence of different apoptosis-inhibitors. 30 h after transfection cells were stained with β-galactosidase and examined for morphological signs of apoptosis. The percentage of round blue apoptotic cells (mean±SD) were represented as a function of total blue cells under each condition (n≧3).
To determine the apoptotic activity of rev-caspase-3 and 6 in vivo, the rev-caspases were expressed in human MCF-7 cells, transfected as explained above in Example 2.

rev-caspase-3 [4] = target: T2, rev-caspase-3; experiment: Autocatalytic processing of in vitro translated rev-caspase-3 (SDS-PAGE/autoradiography); assay type: biochemical; set-up: T7-tag (15 residues) (N); made in house; host or cells: in vitro translation in rabbit reticulocyte lysate (TNT Kit, Promega); conditions: at the concentration used (zVAD-fmk 0-5 μM); p35 data not shown
Protocol: as §3, §4, §5

Row | Molecule | effect of overexpression on apoptotic activity of rev-caspase-6 (rev-caspase-6 [1]) | effect of overexpression on apoptotic activity of rev-caspase-3 (rev-caspase-3 [2]) | autocatalytic processing in the in vitro translation reaction (rev-caspase-6 constructs) (rev-caspase-6 [3]; rabbit reticulocyte lysate, 35S-methionine) | cleavage of lamin (lamin A) | apoptosis in transfected cells (MCF-7 cells) | inhibitory effect on rev-caspase-3 autocatalytic activity compared with rev-caspase-6 (rev-caspase-3 [4]) | inhibitory effect on rev-caspase-6 autocatalytic activity compared with rev-caspase-3 (rev-caspase-6 [3]; at the concentration used (zVAD-fmk 0-5 μM), p35 data not shown)
1 | Bc1-2: overexpressed protein that protects against different forms of apoptosis [reference compound] | did not significantly reduce | did not significantly reduce |  |  |  |  | 
2 | rev-caspase-6: contiguous caspase-6 with small subunit fused N-terminal to large subunit, VEID cleavage site between them (SEQ ID NO:36) (protein, OTHER INFORMATION: Rev-Caspase-6 contructed fro m human caspase-6) MVEIDAASVYTLPAGADFLMCYSVAEGYYSHRETVNGSWYIQDLCEMLGKYGSSLEFTELLTLVNRKVSQRRVDFCKDPSAIGKKQVPCFASMLTKKLHFFPKSNLEHHHHHHVEIDGGSPMSSASGLRRGHPAGGEENMTETDAFYKREMFDPAEKYKMDHRRRGIALIFNHERFFWHLTLPERRGTCADRDNLTRRFSDLGFEVKCFNDLKAEELLLKIHEVSTVSHADADCFVCVFLSHGEGNHIYAYDAKIEIQTLTGLFKGDKCHSLVGKPKIFIIQACRGNQHDVPVIPLDVVD |  |  | able to undergo autocatalytic processing | efficiently cleaved lamin | ~90% |  | 
3 | baculovirus p35: baculovirus p35, which inhibits the activity of most caspases (protein) MCVIFPVEIDVSQTIIRDCQVDKQTRELVYINKIMNTQLTKPVLMMFNISGPIRSVTRKNNNLRDRIKSKVDEQFDQLERDYSDQMDGFHDSIKYFKDEHYSVSCQNGSVLKSKFAKILKSHDYTDKKSIEAYEKYCLPKLVDERNDYYVAVCVLKPGFENGSNQVLSFEYNPIGNKVIVPFAHEINDTGLYEYDVVAYVDSVQFDGEQFEEFVQSLILPSSFKNSEKVLYYNEASKNKSMIYKALEFTTESSWGKSEKYNWKIFCNGFIYDKKSKVLYVKLHNVTSALNKNVILNTIK | partially protected | partially protected |  |  |  | nearly an equal inhibitory effect | nearly an equal inhibitory effect
